Among the data in paper doi:10.1101/2023.03.09.531992 are fold binding against the Lys-x-Lys-x-xCT dibasic mutant and fold higher affinity than the wild-type GST-S tail construct values, retold here.

Assay [1] concerns the target clientized GST-S tail construct Thr1273Glu (SARS-CoV-2 S, Leu1244 to Thr1273) (SARS-CoV-2) (UniProt P0DTC2). In words: pull-down.
In assay [2] the target is clientized GST-S tail construct Thr1273Asp (SARS-CoV-2 S, Leu1244 to Thr1273) (SARS-CoV-2) (UniProt P0DTC2). Description: pull-down.

In assay [1], “endogenous coatomer complex (COPI), mouse liver cytosol, Q8CIE6;Q9JIF7;O55029;Q9QZE5;Q5XJY5;O89079;P61924” gave a fold binding against the Lys-x-Lys-x-xCT dibasic mutant of 2 fold and a fold higher affinity than the wild-type GST-S tail construct of 17 fold. In assay [2], this substance had a fold binding against the Lys-x-Lys-x-xCT dibasic mutant of 2 fold and a fold higher affinity than the wild-type GST-S tail construct of 17 fold.
